In paper PMC4959569:

How the values were obtained:
[1] = Q-PCR normalised to EWS-FLI1 protein level; details: control: mock treated SK-N-MC cells
[2] = Western blot densitometry, antibody 7.3; details: glycan lost; control: untreated SK-N-MC cells

| Protein | other: transcriptional repression of target gene ([1]; glycan lost) | expression_or_secretion, percent_of_wt [2] | other: transcriptional activation of target gene, fold_change ([1]; glycan gained) | other: transcriptional repression of target gene ([1]; glycan gained) |
| --- | --- | --- | --- | --- |
| EWS-FLI1: DON (protein) parent chain: MASTDYSTYSQAAAQQGYSAYTAQPTQGYAQTTQAYGQQSYGTYGQPTDVSYTQAQTTATYGQTAYATSYGQPPTGYTTPTAPQAYSQPVQGYGTGAYDTTTATVTTTQASYAAQSAYGTQPAYPAYGQQPAATAPTRPQDGNKPTETSQPQSSTGGYNQPSLGYGQSNYSYPQVPGSYPMQPVTAPPSYPPTSYSSTQPTSYDQSSYSQQNTYGQPSSYGQQSSYGQQSSYGQQPPTSYPPQTGSYSQAPSQYSQQSSSYGQQSSFRQDHPSSMGVYGQESGGFSGPGENRSMSGPDNRGRGRGGFDRGGMSRGGRGGGRGGMGSAGERGGFNKPGGPMDEGPDLDLGPPVDPDEDSDNSAIYVQGLNDSVTLDDLADFFKQCGVVKMNKRTGQPMIHIYLDKETGKPKGDATVSYEDPPTAKAAVEWFDGKDFQGSKLKVSLARKKPPMNSMRGGLPPREGRGMPPPLRGGPGGPGGPGGPMGRMGGRGGDRGGFPPRGPRGSRGNPSGGGNVQHRAGDWQCPNPGCGNQNFAWRTECNQCKAPKPEGFLPPPFPPPGGDRGRGGPGGMRGGRGGLMDRGGPGGMFRGGRGGDRGGFRGGRGMDRGGFGGGRRGGPGGPPGPLMEQMGGRRGGRGGPGKMDKGEHRQERRDRPY | no change | decreases |  |  |
| EWS-FLI1: STZ (protein) parent chain: MASTDYSTYSQAAAQQGYSAYTAQPTQGYAQTTQAYGQQSYGTYGQPTDVSYTQAQTTATYGQTAYATSYGQPPTGYTTPTAPQAYSQPVQGYGTGAYDTTTATVTTTQASYAAQSAYGTQPAYPAYGQQPAATAPTRPQDGNKPTETSQPQSSTGGYNQPSLGYGQSNYSYPQVPGSYPMQPVTAPPSYPPTSYSSTQPTSYDQSSYSQQNTYGQPSSYGQQSSYGQQSSYGQQPPTSYPPQTGSYSQAPSQYSQQSSSYGQQSSFRQDHPSSMGVYGQESGGFSGPGENRSMSGPDNRGRGRGGFDRGGMSRGGRGGGRGGMGSAGERGGFNKPGGPMDEGPDLDLGPPVDPDEDSDNSAIYVQGLNDSVTLDDLADFFKQCGVVKMNKRTGQPMIHIYLDKETGKPKGDATVSYEDPPTAKAAVEWFDGKDFQGSKLKVSLARKKPPMNSMRGGLPPREGRGMPPPLRGGPGGPGGPGGPMGRMGGRGGDRGGFPPRGPRGSRGNPSGGGNVQHRAGDWQCPNPGCGNQNFAWRTECNQCKAPKPEGFLPPPFPPPGGDRGRGGPGGMRGGRGGLMDRGGPGGMFRGGRGGDRGGFRGGRGMDRGGFGGGRRGGPGGPPGPLMEQMGGRRGGRGGPGKMDKGEHRQERRDRPY |  |  | no change | no change |
